# Reference: paper PMC7538681
# pKd: −log10 of the molar value.
# What was measured:
# [1] = target: N-terminal His-tagged SmYrbA (Sinorhizobium meliloti (strain Sm2011)); assay: switchSENSE; His-tagged SmYrbA held on Ni-NTA3-tagged 48mer DNA nanolevers on the chip; SmGrx2 injected at 25, 50 and 100 µM; 10 mM potassium phosphate pH 7.4, 2 mM MgCl2; 25°C; switching dynamic mode; single-exponential fits; Kd = koff/kon
# [2] = target: Sinorhizobium meliloti glutaredoxin 2 (SmGrx2), untagged (Sinorhizobium meliloti (strain Sm2011)); assay: ITC; SmGrx2 (50 µM, in the cell) titrated with SmYrbA (800 µM), 30 mM phosphate buffer pH 8.0, 20°C, one-set-of-sites model, duplicate
# Chain of N-terminal His-tagged SmYrbA (Sinorhizobium meliloti (strain Sm2011)) (main, as listed by the source): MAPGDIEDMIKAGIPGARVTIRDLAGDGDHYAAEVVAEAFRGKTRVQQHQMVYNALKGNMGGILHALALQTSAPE
pKd [1],dissociation halftime [1],koff [1],kon [1],pKd [2],dH [2],stoichiometry N [2],Substance
5.25,50 s,0.014 s⁻¹,2410 M⁻¹ s⁻¹,–,–,–,"Sinorhizobium meliloti glutaredoxin 2 (SmGrx2), untagged (natural protein)"
–,–,–,–,5.17,-2.9 kcal/mol,1.27,"Sinorhizobium meliloti YrbA (SmYrbA), untagged (natural protein)"
